The values that follow come from article PMC5715097.

For the test, the target named is Sulfolobus solfataricus RNA polymerase (S. solfataricus).

Substance “Sulfolobus solfataricus TFS4 (from UniProt Q97X43 1-92) (natural protein)” yielded a transcription elongation assay on a synthetic scaffold: excess of TFS1 over TFS4 needed for 50% relief of the inhibition by TFS4 (fold excess of TFS1 over TFS4) of 2.
